Results from US20230203142A1, “TREATMENT OF METABOLIC DISORDERS THROUGH THE TARGETING OF A NOVEL CIRCULATING HORMONE COMPLEX” (The President and Fellows of Harvard College, priority 2020, published 2023).

Assays:
INS1 cells [1] = test: Cytosolic calcium flux, Fura-2 AM imaging; conditions: 20 mM glucose
INS1 cells [2] = test: Glucose-stimulated insulin secretion (GSIS), INS1 cells; assay type: cell-based, rat
Method: This finding was recapitulated in both primary human islets from multiple non-diabetic donors (FIG. 6B), as well as INS1 cells (FIG. 6C). Human islets from review board approved healthy donors were isolated using the Edmonton protocol and provided by the IsletCore and Clinical Islet Laboratory (University of Alberta, Canada). Donors with a BMI<25 and HbA1c<6.0% were used for experiments. Islets were hand-picked three times and cultured at 37° C. in RPMI media with 10% FBS and 1% Penicillin/Streptomycin overnight before use. For INS1 cells, cells were plated at 8000 cells/well in 96-well plates and incubated overnight prior to experimentation. Insulin secretion assay was performed as above using 200 μl/well for each treatment. Cells were lysed using 80 μl ultrapure water and flash freezing. For siRNA experiments, INS1 cells were allowed to reach confluency before transfection of siRNA (Horizon Discovery; L-090381-02-0005) using Lipofectamine 3000 (Thermo Fischer; L3000015) according to manufacturer protocol for 48 hours prior to assays.
As additional controls, it was explored whether lipid binding was required for FABP4 action. […] FABP4 inhibitor studies were performed using BMS-309403 (10 nM; Sigma #BM0015).
To further elucidate the role of purinergic receptors in this signaling process, a potent and selective P2Y1 inhibitor, MRS2179 (Baurand et al., 2001) was utilized. […]

non-diabetic NOD mice = test: Immune phenotyping (FACS) of tissues of treated NOD mice; assay type: in vivo, mouse; conditions: mean
Method: To perform immune phenotyping, mice were euthanized with CO2 and cardiac perfusion performed with 40 ml of sterile PBS. Whole pancreas, pancreatic lymph nodes (PLN), inguinal lymph nodes (ILN), and spleen were harvested, diced into 1 mm pieces, placed in digestion buffer (RPMI 1640, lmg/ml Collagenase Type IV, 10 U/ml DNAsel, and 1% BSA), and incubated at 37° C. for 20 min shaking at 250 rpm. Pancreas samples were filtered through a 40 μm nylon strainer into a fresh 50 ml tube, and fresh media added up to 40 ml (RPMI 1640, 1% FBS, 1% Sodium Pyruvate, 1.56 ul β-mercaptoethanol). Tubes were then centrifuged at 1500 rpm for 10 min, supernatant removed, and cells resuspended in 2 ml fresh media. Resuspended cells were passed through a 40 μm nylon filter into a 15 ml round-bottomed polystyrene tube. For PLN, ILN, and spleen, digestion samples were filtered through a 40 μm nylon strainer into a 15 ml round bottom polystyrene tube, and lml of media was added. Spleen samples had supernatant removed, and lml ACK lysis buffer (Thermo Scientific A1049201) added for 2 min at room temperature. Samples were then centrifuged at 1500 rpm for 5 min, and resuspended in 1 ml media. All samples were centrifuged at 1500 rpm for 5 min, supernatant removed, and cells resuspended in FACS buffer (5% BSA in cold PBS; 0.5 ml for PLN and ILN, lml for pancreas and spleen). Staining and FACS analysis were performed as previously described (Engin et al., 2013).

INS1 cells [3] = test system: INS1 cells
Method: Cells were pre-treated with P2Y1 activator (0.5 nM; MRS2365 Tocris #2157) during the pre-incubation period. Cells were stimulated with ATP (5 μM; Promega #V915A) or ADP (2.5 μM; Promega #V916A) acutely with the addition of LG and HG KRB during the serial stimulation. Cells were treated with 100 ng/ml recombinant human FABP4 (produced in-house), 200 ng/ml recombinant human ADK (Novus Biologicals, product number NBP1-44382 or R&D Systems, product number 8024-AK-025), or 100 ng/ml recombinant human NDPK-A (Acro Biosystems, product number NM1-H5147) where indicated, for the pre-incubation period, as well as during the glucose stimulation.
Briefly, INS1 cells were plated in imaging disks at 5000 cells/dish and cultured in standard media overnight. Cells were washed with PBS, and incubated in imaging buffer without glucose, with or without calcium containing Fura-2 AM (2 mM; ThermoFisher F1201) for 30 minutes at 37° C. Cells were washed twice with fresh PBS, and placed in lml imaging buffer. Calcium flux was evaluated with the addition of 20 mM glucose, 30 mM KCl, or 1 μM Thapsigargin. Extracellular calcium was added at 1.5 mM. Calcium flux measurements were performed using an epifluorescence system coupled to a Ti-S/L100 inverted microscope L100 with fluorescent light source (X-Cite 120LED System) equipped with Lambda DG-4 Plus for UV ratiometric probes. Excitations at 340 nm and 380 nm were used and an emission of 510 nm. Analysis was performed using ImageJ software. Calcium flux was measured from 50 cells per coverslip.

B1: a-Ab: monoclonal antibody previously reported as CA33; heavy chain SEQ ID NO 446, light chain SEQ ID NO 447; binds FABP4 and NDPK (antibody, listed as Homo sapiens)
heavy: QSVEESGGRLVTPGTPLTLTCTVSGFSLSTYYMSWVRQAPGKGLEWIGIIYPSGSTYCASWAKGRFTISKASTTVDLKITSPTTEDTATYFCARPDNDGTSGYLSGFGLWGQGLVTVSSAKTTPPSVYPLAPGSAAQTNSMVTLGCLVKGYFPEPVTVTWNSGSLSSGVHTFPAVLQSDLYTLSSSVTVPSSTWPSETVTCNVAHPASSTKVDKKIVPRDC
light: DVVMTQTPASVSEPVGGTVTIKCGASEDISRYLVWYQQKPGQPPKRLIYKASTLASGVPSRFKGSGSGTDFTLTISDLECDDAATYYCQCTYGTYAGSFFYSFGGGTEVVVERTDAAPTVSIFPPSSEQLTSGGASVVCFLNNFYPKDINVKWKIDGSERQNGVLNSWTDQDSKDCTYSMSSTLTLTKDEYERHNSYTCEATHKTSTSPIVKSFNRNEC
INS1 cells [1]
  extracellular calcium influx in response to glucose: rescue
INS1 cells [2]
  GSIS in the presence of the NDPK-ADK/FABP4 complex: rescued
non-diabetic NOD mice; inguinal lymph nodes
  ILN Cytotoxic T-Cells: 21.4%
non-diabetic NOD mice
  Spleen Cytotoxic T-Cells: 11.5%
non-diabetic NOD mice; pancreatic lymph nodes
  PLN Cytotoxic T-Cells: 15.7%
INS1 cells [3]
  ER calcium efflux: rescue
